# Measurements as given in the RNAGym collection of RNA variant scans (doi:10.1073/pnas.2313332121).
# Fewer inactive variants are shown than the library holds.
# B1: TPR 5TU (parent)
# chain: GGAUCUUCUCGAUCUAACAAAAAAGACAAAUCUGCCACAAAGCUUGAGAGCAUCUUCGGAUGCAGAGGCGGCAGCCUUCGGUGGCGCGAUAGCGCCAACGUUCUCAACUAUGACACGCAAAACGCGUGCUCCGUUGAAUGGAGUUUAUCAUG
# Variants of: B1
# Assay: polymerase ribozyme fitness, log enrichment relative to wild type (log ratio); higher = more active; in vitro selection for triplet polymerase activity
# How it was run: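 Fitness is a logarithmic measure of how a genotype enriched relative to the wild type, with replicate averages weighted by inverse variance. The logarithm uses base 2, and enrichment came from Illumina sequencing of input and output libraries. Those libraries were PCR-built, transcribed mutants of each subunit of a heterodimeric triplet polymerase ribozyme, passed through one triplicate in vitro selection round that included frozen incubation at −7 °C, gel excision of extended constructs and streptavidin-bead capture. Genotypes were kept only if they had ≥10 input reads and ≥1 read per output.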
row,Variant,polymerase ribozyme fitness (log ratio)
1,GGAUCUUCUCGAUCUAACAAAAAAGACAAAUCUGCCACAAAGCUUGAGAGCAUCUACGGAUGCAGAGGCGGCAGCCUUCGGUGGGUCGAUAGCGCCAACGUUCUCAACUAUGACACGCAAAACGCGUGCUCCGUUGAAUGGAGUUUAUCAUG [U56A C85G G86U],≤ -4.2
2,GGAUCUUCUCGAUCUAACAAAAAAGACAAAUCUGCCACAAAGCUUGAGAGCAUCUACGGAUGCAGAGGCGGCAGCCUUCGGUGGCGCGAUAGCGCCAAAGUUCUCAACUAUGACACGCAAAACGCGUGCUCCGUUGAAUGGAGUUUAUCAUG [U56A C99A],-1.6
3,GGAUCUUCUCGAUCUAACAAAAAAGACAAAUCUGCCACAAAGCUUGAGAGCAUCUACGGAUGCAGAGGCGGCAGCCUUCGGUGGCGUGAUAGCGCCAACGUUCUCAACUAUGACACGCAAAACGCGUGCUCCGUUGAAUGGAGUUUAUCAUG [U56A C87U],-1.66
4,GGAUCUUCUCGAUCUAACAAAAAAGACAAAUCUGCCACAAAGCUUGAGAGCAUCUACGGAUGCAGAGGCCGCAGCCUUCGGUGGCGCGAUAGCGCCAACGUUCUCAACUAUGACACCCAAAACGCGUGCUCCGUUGAAUGGAGUUUAUCAUG [U56A G70C G117C],-3.79
5,GGAUCUUCUCGAUCUAACAAAAAAGACAAAUCUGCCACAAAGCUUGAGAGCAUCUACGGAUGCAGAGGCGGCAGCCUUCGCUGGCGUGAUAGCGCCAACGUUCUCAACUAUGACACGCAAAACGCGUGCUCCGUUGAAUGGAGUUUAUCAUG [U56A G81C C87U],-1.03
6,GGAUCUUCUCGAUCUAACAAAAAAGACAAAUCUGCCACAAAGCUUGAGAGCAUCUACGGAUGCAGAGGCGGCAGCGUUCGGUGGUGCGAUGGCGCCAACGUUCUCAACUAGGACACGUAAAACGCGUGCUCCGUUGAAUAGAAUUUAUCAUG [U56A C76G C85U A91G U111G C118U G140A G143A],≤ -4.2
7,GGAUCUUCUCGAUCUAACAAAAAAGACAAAUCUGCCACAAAGCUUGAGAGCAUCUACUGAUGCAGAGGCGGCAGCCUUCGGUGGCGCGAUAGCGCCAUCCUUCUCAACUAUGACACGCAAAACGCGUGCUCCGUUGAAUGGAGUUUAUCAUG [U56A G58U A98U G100C],≤ -4.2
8,GGAUCUUCUCGAUCUAACAAAAAAGACAAAUCUGCCACAAAGCUUGAGAGCAUCUACGGAUGCAGAGGCGGCAGCCUUCGGUGGCGCGAUAGCGCCAACGUUCUCAACUAUGACACGCAAAACGCGUGCUUCGUUGAAUGGAGUUUAUCAUG [U56A C131U],0.529
9,GGAUCUUCUCGAUCUAACAAAAAAGACAAAUCUGCCACAAAGCUUGAGAGCAUCUACGGAUGCAGAGGCGGCAGCCUUCGGUGGCGCGAUAGCGGCAGCGUUCUCAACUAUGACACGCAAAACGCGUGCUCCGUUGAAUGGAGUUUAUCAUG [U56A C95G A98G],-1.91
10,GGAUCUUCUCGAUCUAACAAAAAAGACAAAUCUGCCACAAAGCUUGAGAGCAUCUACGGAUACAGAGGCGGCAGCCUCCGGUUGCGCGAUAGCGCCAACGUUCUCAACUAUGACACGCAAAACGCGUGCUCCGUUGAAUGGAGUUUAUCAUG [U56A G62A U78C G83U],-3.55
11,GGAUCUUCUCGAUCUAACAAAAAAGACAAAUCUGCCACAAAGCUUGAGAGCAUCUACGGAUGCAGAGGCGGCAGCCUUCGGUGGCGCGAUAGCGCAAACGUUCUCAACUAUGACACGCAAAACGCGUGCUCCGUUGAAUGGAGUUUAUCAUG [U56A C96A],-0.833
12,GGAUCUUCUCGAUCUAACAAAAAAGACAAAUCUGCCACAAAGCUUGAGAGCAUCUACGGAUGCAGAGGCGGCAGCCUUCGGUGGCGUGAUAGCGCUAACGUUGUCAACUAUGACACGCAAAACGCGUGCUCCGUUGAAUGGAGUUUAUCAUG [U56A C87U C96U C103G],-3.09
13,GGAUCUUCUCGAUCUAACAAAAAAGACAAAUCUGCCACAAAGCUUGAGAGCAUCUACGGAUGCAGAGGCGGCAGCCUUCGGUGGAGCGAUGGCGCCAACGUUCUCAACUAUGACACGCAAAACGCGUUCUCCGUUGAAUGGAGUUUAUCAUG [U56A C85A A91G G128U],≤ -4.2
14,GGAUCUUCUCGAUCUAACAAAAAAGACAAAUCUGCCACAAAGCUUGAGAGCAUCUACGGAUGCAGAGGCGGCAGCCUUCGGUGGCGCGAUAGCGCUAACGUUCUCAACUAUGACACGCAAAACGCGUGCUCCGUUGAAUGGAGUUUAACAUG [U56A C96U U148A],-3.44
15,GGAUCUUCUCGAUCUAACAAAAAAGACAAAUCUGCCACAAAGCUUGAGAGCAUCUACGGAUGCAGAGGCGGCAGCCUUCGCUAGCGGGAUAGCGCCAACGUUCUCAGCUAUGACACGCAAACCGCGUGCUCCGUUGAAUGUAGUUUAUCAUG [U56A G81C G83A C87G A107G A122C G141U],≤ -4.2
16,GGAUCUUCUCGAUCUAACAAAAAAGACAAAUCUGCCACAAAGCUUGAGAGCAUCUACGGAUGCAGAGGCGGCAGCCUUCGGUGGCGCGAUAGCGCCAACGUUCUCAACUAUGAGACGCAAAACGCGUGCUCCGUUGAAUGGAGUUUAUCAUG [U56A C114G],-3.1
17,GGAUCUUCUCGAUCUAACAAAAAAGACAAAUCUGCCACAAAGCUUGAGAGCAUCUACGGAUGCAGAGGCGGCAGCGUUCGGUGGCGCGAUAGCGCCAACGUUCUCAACUAUGACACGCAAAACGCGUGCUCCGUUGAAUGGAGUUUAUCAUG [U56A C76G],≤ -4.2
18,GGAUCUUCUCGAUCUAACAAAAAAGACAAAUCUGCCACAAAGCUUGAGAGCAUCUACGGAUGCAGAGGCGGCAGCCUUCGGUGGCGCGAUAGAGCCAACGUUCUCGACUAUGACACGCAAAACGCGUGCUCCGUUGAAUGGAGUUUAUCAUG [U56A C93A A106G],-1.97
19,GGAUCUUCUCGAUCUAACAAAAAAGACAAAUCUGCCACAAAGCUUGAGAGCAUCUACGGAUGCAGAGGCGGCAGCCUUCCGUGGCGCGAUAGAGACAACGUGCUCAACUAUGAAACGCAAAACGCGUGCUCCGUUGAAUGGAGUUUAUCUUG [U56A G80C C93A C95A U102G C114A A150U],≤ -4.2
